Measured values reported in the supplement of paper PMC9170038.

Test system: MS2 coat protein
Test: apparent KD of MS2 coat protein; designed switch direction (-1 OFF switch, 1 ON switch): -1; higher = weaker reporter binding
Method in brief: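 Designed RNA switches were transcribed on Illumina chips by stalled E. coli RNA polymerase and titrated with SNAP-549-labelled MS2 coat protein from 0.7 or 1.5 nM, doubling to 3 µM. Step length ran from 0.8–1.5 h at the lowest concentration to 10–20 min at the highest. The apparent KD is the median over clusters for each design, from curve-fitted normalised cluster fluorescence.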

[1] = input ligand: microRNA oligo, concentration not stated
[2] = Eterna round: R95, input ligand: FMN 200 uM
[3] = Eterna round: R95, input ligand: microRNA oligo, concentration not stated
[4] = Eterna round: R95, input ligand: none

Sequence	apparent KD of MS2 coat protein (input ligand: FMN 200 uM)	apparent KD of MS2 coat protein (input ligand: none)	apparent KD of MS2 coat protein [1]	apparent KD of MS2 coat protein [2]	apparent KD of MS2 coat protein [3]	apparent KD of MS2 coat protein [4]
GUGAGCAGACGGAGAUCCAACAUGAGGAUCACCCAUGUCUCACUAGCUUUUUGCUCGUCUUAUCCUCCUCUGUUCAC [Elimod 23 - Jieux - Sensor, turn-off variant 1] (Eterna round: R97, puzzle: Sensor, turn-off variant 1)	16 nM	16.2 nM	–	–	–	–
GCUGGUCGAGGAUAUACAUGAGGAUCACCCAUGUAGAUCAACCAGCUUCGGCUGGAAUGUAGAAGGCGACCAGC [E3/5-A4] (Eterna round: R97, puzzle: Exclusion 3)	117 nM	19.5 nM	–	–	–	–
CGAUAAAGCUGAGGAUAUGAGAAUAGAAAGAAAUCAGAAGGCAGACAUGAGGAUCACCCAUGUGAGUUCUCGAGAUUACAUGGU [Prohibition 46 - Jieux - Exclusion NG 1] (Eterna round: R96, puzzle: Exclusion NG 1)	–	–	112 nM	–	–	–
AGCUGUGGCCGAGGAUAUCUGAACCUUCAAACCGAAAUAUAAUCGGACAUGAGGAUCACCCAUGUAGAGAAGGCGGUCUCAGCA [Eli eng2 - 060] (Eterna round: R96, puzzle: Exclusion NG 2)	–	–	9.95 nM	–	–	–
GAGUGACAUGAGGAUCACCCAUGUGAGGAUAUCGGACGGACCAAAUUAACAAUAAUUGCGAGAAGGCGCAUCGG [Exclusion 1 V15] (puzzle: Exclusion 1)	–	–	–	76 nM	51.6 nM	54.4 nM
AGUGCGUAUGUGAGGAUAUGCUGGUCCUUGGAUCAGCAGAAGGCACAUGAGGAUCACCCAUGUGGUGUCGUACG [salish99_Bmod_Ex4_004] (puzzle: Brourd's mod of Exclusion 4)	–	–	–	245 nM	51.8 nM	60 nM
GUGUACAGAGGAUAUACUUAUGGAGUUACGAAAGUAACUUCACAUGAGGAUCACCCAUGUAGAAGGCUGUACAC [Dot plot directed v10] (puzzle: Exclusion 2)	–	–	–	–	25.9 nM	–
GGUCGGCGAGGAUAUACAUGAGGAUCACCCAUGUGAUAGAGUGCACGAAAACGUGUACGUAGAAGGCGCUGACG [Mat - Exclusion 3 - Mod of JL D96] (puzzle: Exclusion 3)	–	–	–	29.5 nM	11 nM	9.24 nM
GAUAAGGUAGGAUAUACGAAGAAAGAGGGUAGUAAUAAUACACAUGAGGAUCACCCAUGUAGAAGGACCAAGAG [Mat - Exclusion 2 - Mod of my Tesla design - D44] (puzzle: Exclusion 2)	–	–	–	38.7 nM	23 nM	22.1 nM
ACUGUUUGAUACCUCUAAUACAUGAGGAUCACCCAUGUUAUCGAGGAUAUGCAUUAGAGUGGUUAGCAGAAGGCGAAGUAAUUG [JR_ExcNG3_Sub031] (Eterna round: R96, puzzle: Exclusion NG 3)	17 nM	21.6 nM	14.2 nM	–	–	–
AAUUUACAUGAGGAUCACCCAUGUGAGGAUAUGGAUUCGCUGGCCGUAGCCAGUGGAUCCAGAAGGCGCAUGAU [JL-ex1-4.12] (Eterna round: R97, puzzle: Exclusion 1)	402 nM	94.8 nM	–	–	–	–
GUUAGUUAAGGAUAUACAGGGAGCUGCGGCGUCUCGCCGCAACAUGAGGAUCACCCAUGUAGAAGGUGACCUUU [JL ViennaUCT Enbibi mod 7] (puzzle: Exclusion 2)	–	–	–	–	435 nM	–
CGGCGACAUGAGGAUCACCCAUGUGAGGAUAUGACGGGAAAAGCGUGAGCAGUUUGUAUCAGAAGGCGGGUAGG [salish99_ex1_r4_080] (Eterna round: R97, puzzle: Exclusion 1)	37.2 nM	33.6 nM	–	–	–	–
ACAUGAGGAUCACCCAUGUGAAAACAAUGGCUGACUUUGAGACAGGAUAUAGGUGCAUAUCAAACCUAGAAGGGUCAUUACUGG [Deportation 93 - Jieux - Exclusion NG 3] (Eterna round: R96, puzzle: Exclusion NG 3)	43.5 nM	38.2 nM	31.6 nM	–	–	–
CAUACUGAAGUUAGGAUAUUCGAACGUAUACGGAUGGAGAAGGGACAUGAGGAUCACCCAUGUAGAUAGUAAAG [EX-4 Malc #11] (puzzle: Brourd's mod of Exclusion 4)	–	–	–	23.1 nM	21.5 nM	23.1 nM
AGCGAAGAGACAGGAUAUGAGAAUAGAUAGAGCUCAGAAGGGUCACAUGAGGAUCACCCAUGUAAAGUCUUGAGGCUGCGUGGU [Prohibition 10 - Jieux - Exclusion NG 1] (Eterna round: R96, puzzle: Exclusion NG 1)	123 nM	61.7 nM	41.1 nM	–	–	–
GAGACAGAAGGAUAUACGUCCGCGAGUGCGAUGCGCUUGGGACAUGAGGAUCACCCAUGUAGAAGGUCUAACCC [Eternabot (L1) Solution 89] (Eterna round: R97, puzzle: Exclusion 2)	318 nM	251 nM	–	–	–	–

Sequence	apparent KD of MS2 coat protein (input ligand: FMN 200 uM)	apparent KD of MS2 coat protein (input ligand: none)	apparent KD of MS2 coat protein [1]	apparent KD of MS2 coat protein [2]	apparent KD of MS2 coat protein [3]	apparent KD of MS2 coat protein [4]
ACAUGAGGAUCACCCAUGUGCACGUAAUGGCUCAUGUAGAGUCAGGAUAUGCGUGGCGAACUCGCGCAGAAGGGACAAGACUGG [Deportation 20 - Jieux - Exclusion NG 3] (Eterna round: R96, puzzle: Exclusion NG 3)	23.5 nM	34.6 nM	25.6 nM	–	–	–
UUUUAACAUGAGGAUCACCCAUGUGAGGAUAUCGUUUUUUAUAUUAAUAUUAAUAAAACGAGAAGGCACAUUUU [JMF 10] (puzzle: Exclusion 1)	–	–	–	–	121 nM	–
GCUGGUAUAGGAUAUACGUAAGACGUGGUCCACAGUUAAUUACAUGAGGAUCACCCAUGUAGAAGGAUGGAAGC [Eternabot (L2) Solution 95] (Eterna round: R97, puzzle: Exclusion 2)	298 nM	65.8 nM	–	–	–	–
GACCCAGAUGUAAGGAUAUCGAGCUGCGUCAGGUUCGAGAAGGUACAUGAGGAUCACCCAUGUGCAAGCACUCC [BmEX4 B.18] (Eterna round: R97, puzzle: Brourd's mod of Exclusion 4)	32.8 nM	17.4 nM	–	–	–	–
CGUAUCUUUCACGUGAGUAGUGGGUGCAACAGGUGGGUCACAUGAGGAUCACCCAUGUACUCACUUGCUCGUCUUAU [Grok-var2-07] (puzzle: Sensor v3, turn-off variant 2)	–	–	–	24 nM	14 nM	21.8 nM
UUACGGCGGAGAGGAUAUCCGAAAGGAAGUGUAGGAGAAGGCUCCAGUUGUACAUGAGGAUCACCCAUGUGAUCCUUUCCGAAA [PowerStrip EXNG 1.25] (Eterna round: R96, puzzle: Exclusion NG 1)	2040 nM	126 nM	79.7 nM	–	–	–
UAAUGUAUAUAGGAUAUCUAGCUGGAAACAGCUAGAGAAGGAUGUACAUGAGGAUCACCCAUGUAAAUCAAUAA [Ex6/9-A1] (Eterna round: R97, puzzle: Exclusion 6)	57.5 nM	19.5 nM	–	–	–	–
CAUGGAUGUGAGCCGCAUUACAUGAGGAUCACCCAUGUCAACAAGCUUUUUGCUUGUCUUACGCGGCGACAUCAGAA [Tiquatge] (puzzle: Sensor v3, turn-off variant 1)	–	–	–	11.7 nM	8.33 nM	10.1 nM
UUGUUACGAUUAGGAUAUUAUAGAUUGAAUAGUAUGAUUUACAUGAGGAUCACCCAUGUUACAUUUAAGAAGGAAUCGAAUUAU [JR_ExcNG2_Sub089] (Eterna round: R96, puzzle: Exclusion NG 2)	–	–	16.1 nM	–	–	–
AUAAUUAAUGCAGGAUAUCAGCACGAUUAGUGCUGAGAAGGGCACAUGAGGAUCACCCAUGUGAUCAAUUAAUAUUAAUAUUAU [ENG1/11-D1] (Eterna round: R96, puzzle: Exclusion NG 1)	279 nM	61.6 nM	53 nM	–	–	–
UCAUGUCCAGAGGAUAUGUAGCGGGAGACCGCAACAGAAGGCUGGACAUGAGGAUCACCCAUGUGCGCCUUCGA [jl-ex3-4.27 ViennaUCT mod] (Eterna round: R97, puzzle: Exclusion 6)	35.9 nM	113 nM	–	–	–	–
GAGCUGUGAGGAUAUACAUGAGGAUCACCCAUGUUAAGGAAGUCGGGAUUAAUUUGGUGUAGAAGGCGCUUAUU [JR_Ex3_Sub020] (Eterna round: R97, puzzle: Exclusion 3)	44 nM	42.5 nM	–	–	–	–
GUCGAGUGAGGAUAUGGUGAGUAGUGCCUGAGCGCUGCUCACCAGAAGGCACAUGAGGAUCACCCAUGUAUGUC [JL-ex4-2.04 denovo] (puzzle: Exclusion 4)	–	–	–	–	12.3 nM	–
AUCAGUCGAGGAUAUACGAUCGUGCUUCGGCACGUAAGAUCACAUGAGGAUCACCCAUGUAGAAGGCGACUGAU [Mod 8 - Jieux - Exclusion 2] (Eterna round: R97, puzzle: Exclusion 2)	463 nM	30.4 nM	–	–	–	–
CGGUGUAGAGGAUAUACGUGAAUUUUGUUAUAUAAUAAUUUACAUGAGGAUCACCCAUGUAGAAGGCUAUAGCG [JR_Ex2_Sub084] (Eterna round: R97, puzzle: Exclusion 2)	23.4 nM	24.2 nM	–	–	–	–
UACCUGAGGCUUUGCUUUAGGCUUACAUGAGGAUCACCCAUGUAGGAUAUGGUAGGCUUUGCUUACCAGAAGGACAUGGUAAUU [JL ENG3 1.07] (Eterna round: R96, puzzle: Exclusion NG 3)	90.9 nM	64.6 nM	59.9 nM	–	–	–
UUUUAACAUGAGGAUCACCCAUGUGAGGAUAUCGAUUUUUAUAUUAAUAUUAAUAAAACGAGAAGGCACAUUUU [JMF 11] (puzzle: Exclusion 1)	–	–	–	–	123 nM	–
